A word on the Km: it is the substrate concentration at which the rate is half of its maximum.

Substrate in this data set: Nc1ncnc2c1ncn2[C@@H]1O[C@H](COP(=O)(O)OP(=O)(O)OP(=O)(O)O)[C@@H](O)[C@H]1O
The experiment in a line: purified protein. It is filed as biochemical, Escherichia coli. Conditions: nanodisc-embedded complex (POPG), 0-4 mM ATP, 37 °C, 30 min.

B1: MlaFEDB (Escherichia coli K-12) (protein)
chain: MEQSVANLVDMRDVSFTRGNRCIFDNISLTVPRGKITAIMGPSGIGKTTLLRLIGGQIAPDHGEILFDGENIPAMSRSRLYTVRKRMSMLFQSGALFTDMNVFDNVAYPLREHTQLPAPLLHSTVMMKLEAVGLRGAAKLMPSELSGGMARRAALARAIALEPDLIMFDEPFVGQDPITMGVLVKLISELNSALGVTCVVVSHDVPEVLSIADHAWILADKKIVAHGSAQALQANPDPRVRQFLDGIADGPVPFRYPAGDYHADLLPGS
notes: mlaFEDCB operon in pET20b, C-terminal His-tag on MlaB; host E. coli C43(DE3); purified in DDM, reconstituted in MSP1D1/POPG nanodisc; MlaC only in traces (by MS); with Intermembrane phospholipid transport system permease protein MlaE
Regarding B1, the Km is 90 ± 20 µM.

The values above are taken from article PMC7784689, “Structural mechanism of phospholipids translocation by MlaFEDB complex” (Cell Research, 2020).
